# Results as given in patent publication US20250163176A1, “MONOCLONAL ANTIBODY AGAINST TROP2 AND USE THEREOF” (INSTITUTE OF MEDICAL BIOTECHNOLOGY, CHINESE ACADEMY OF …, priority 2022, published 2025).
# B1: LDM: antitumor antibiotic lidamycin: protein LDP (SEQ ID NO:37) with bound active enediyne (AE) chromophore of Formula I (protein)
# chain: APAFSVSPASGLSDGQSVSVSVSGAAAGETYYIAQCAPVGGQDACNPATATSFTTDASGAASFSFVVRKSYTGSTPEGTPVGSVDCATAACNLGAGNSGLDLGHVALTFG
# modifications: bound enediyne chromophore
# Assays:
# Experiment in all cases: cytotoxic activity against tumor cells cultured in vitro (CCK-8)
# Assay type in all cases: cell-based
# [1] = test system: A549; settings: A549, 48 h culture
# Procedure: (§1) Tumor cells in the logarithmic growth phase after subculture were selected and prepared into a single-cell suspension and cell counting was performed. The cell concentration was adjusted to 3×10^3 cells/well, and the cells were inoculated into a 96-well plate with 80 μL/well. After 24 h of incubation, 20 μL of anti-Trop2-IgG, LDM, and Anti-Trop2-IgG-LDM diluted to different concentrations were added, with three parallel wells for each concentration. After 48 h of culture, 10 μL of CCK-8 reagent was added to each well in the dark, followed by shaking for 3 min and incubation in an incubator for 1 h. The 96-well plate was taken and shaken for 2 min, and the OD value at 450 nm was measured using a microplate reader. In addition to the drug-treated groups at different concentrations, three parallel wells each for the drug-free control group and the cell-free blank group were set up.
# [2] = test system: KYSE150; settings: KYSE150, 48 h culture
# Procedure: as §1
# [3] = test system: A431; settings: A431, 48 h culture
# Procedure: as §1
# [4] = test system: ECA109; settings: ECA109, 48 h culture
# Procedure: as §1
molecule,measurement,setting,value
B1,IC50,[1],0.169 ± 0.017 nM
same,IC50,[2],0.995 ± 0.008 nM
same,IC50,[3],0.007 ± 0.002 nM
same,IC50,[4],0.445 ± 0.034 nM
